Results published in US10864252B2, “Anti-SSX-2 T cell receptors and related materials and methods of use” (The United States of America, as represented by the …, priority 2010, dated 2020).

B1: SSX2-TCR-Co Op: codon-optimized anti-SSX-2 TCR alpha and beta chains encoded by SEQ ID NO: 29, tested as transduced human PBLs (protein)
chain: MALSSLLKVVTASLWLGPGIAQKITQTQPGMFVQEKEAVTLDCTYDTSDPSYGLFWYKQPSSGEMIFLIYQGSYDQQNATEGRYSLNFQKARKSANLVISASQLGDSAMYFCAMTSGFGNEKLTFGTGTRLTIIPNIQNPDPAVYQLRDSKSSDKSVCLFTDFDSQTNVSQSKDSDVYITDKTVLDMRSMDFKSNSAVAWSNKSDFACANAFNNSIIPEDTFFPSPESSCDVKLVEKSFETDTNLNFQNLSVIGFRILLLKVAGFNLLMTLRLWSSRAKRSGSGATNFSLLKQAGDVEENPGPMGPGLLHWMALCLLGTGHGDAMVIQNPRYQVTQFGKPVTLSCSQTLNHNVMYWYQQKSSQAPKLLFHYYDKDFNNEADTPDNFQSRRPNTSFCFLDIRSPGLGDAAMYLCATSRGQGGQPQHFGDGTRLSILEDLNKVFPPEVAVFEPSEAEISHTQKATLVCLATGFFPDHVELSWWVNGKEVHSGVSTDPQPLKEQPALNDSRYCLSSRLRVSATFWQNPRNHFRCQVQFYGLSENDEWTQDRAKPVTQIVSAEAWGRADCGFTSVSYQQGVLSATILYEILLGKATLYAVLVSALVLMAMVKRKDF
B2: SSX2-TCR-MCR: codon-optimized human/mouse chimeric anti-SSX-2 TCR with mouse constant region, encoded by SEQ ID NO: 30, tested as transduced human PBLs (protein)
chain: MALSSLLKVVTASLWLGPGIAQKITQTQPGMFVQEKEAVTLDCTYDTSDPSYGLFWYKQPSSGEMIFLIYQGSYDQQNATEGRYSLNFQKARKSANLVISASQLGDSAMYFCAMTSGFGNEKLTFGTGTRLTIIPNDIQNPEPAVYQLKDPRSQDSTLCLFTDFDSQINVPKTMESGTFITDKTVLDMKAMDSKSNGAIAWSNQTSFTCQDIFKETNATYPSSDVPCDATLTEKSFETDMNLNFQNLSVMGLRILLLKVAGFNLLMTLRLWSSRAKRSGSGATNFSLLKQAGDVEENPGPMGPGLLHWMALCLLGTGHGDAMVIQNPRYQVTQFGKPVTLSCSQTLNHNVMYWYQQKSSQAPKLLFHYYDKDFNNEADTPDNFQSRRPNTSFCFLDIRSPGLGDAAMYLCATSRGQGGQPQHFGDGTRLSILEDLRNVTPPKVSLFEPSKAEIANKQKATLVCLARGFFPDHVELSWWVNGKEVHSGVSTDPQAYKESNYSYCLSSRLRVSATFWHNPRNHFRCQVQFHGLSEEDKWPEGSPKPVTQNISAEAWGRACGITSSYQQGVLSATILYEILLGKATLYAVLVSTLVVMAMVKRKNS

Key:
mel1300 cells = experiment: IFN-γ release, SSX-2 TCR PBL co-cultured with mel1300 cells with DAC; format: cell-based; settings: 0.1 μM or 1.0 μWI DAC; PBLs from three donors; FIG. 12
Experimental: SSX-2 TCR-transduced PBLs from three donors were co-cultured with mel1300 cells without DAC or with 0.1 μM or 1.0 μWI DAC.

COS-A2 = experiment: IFN-γ release, TCR-transduced PBL co-cultured with COS-A2; format: cell-based; settings: co-cultured with Cos-A2
Description: (§1) SSX-2 TCR-transduced PBLs were co-cultured with various tumor cell lines. […] FIGS. 4A and 4B, FIG. 11, and Tables 3 and 4 show additional results of PBLs from human donors that were transduced with the SSX-2 TCR of Example 2 when these PBLs were co-cultured with various tumor cells. PBLs that were untransduced (UT) or transduced with a vector comprising SEQ ID NO: 27 (SSX-2 TCR), SEQ ID NO: 29 (codon-optimized SSX-2 TCR), or SEQ ID NO: 30 (codon-optimized SSX-2 TCR including mouse constant region) were co-cultured with various tumor cell lines. Tables 5 and 6 show the resulting interferon-γ levels (pg/ml) measured with respect to PBL from two different donors.

K562 = experiment: IFN-γ release, co-culture with K562; format: cell-based; settings: co-cultured with K562
Description: (§2) PBLs that were untransduced (UT) or transduced with a vector comprising SEQ ID NO: 27 (SSX-2 TCR), SEQ ID NO: 29 (codon-optimized SSX-2 TCR), or SEQ ID NO: 30 (codon-optimized SSX-2 TCR including mouse constant region) were co-cultured with various tumor cell lines. Tables 5 and 6 show the resulting interferon-γ levels (pg/ml) measured with respect to PBL from two different donors.

938-A2 mel = experiment: IFN-γ release, co-culture with 938-A2 melanoma; format: cell-based; settings: co-cultured with 938-A2 mel
Description: as §1

Lau 149 mel = experiment: IFN-γ release, co-culture with Lau 149 mel; format: cell-based; settings: co-cultured with Lau 149 mel
Description: as §2

293-A2 SSX2 = experiment: IFN-γ release, co-culture with 293-A2 SSX2; format: cell-based; settings: co-cultured with 293-A2-SSX2
Description: as §1

SK MEL37 = experiment: IFN-γ release, co-culture with SK MEL37 melanoma; format: cell-based
Description: as §1

[1] = tested on: SSX-2+/HLA-A2+ target cells; experiment: Percent lysis of target cells; format: cell-based; settings: FIGS. 7A-D and 8A-D, various E:T ratios
293-A2 = experiment: IFN-γ release, co-culture with 293-A2; format: cell-based; settings: co-cultured with 293-A2
Description: as §1

[2] = IFN-γ release, transduced PBL without target cells (medium / T cell alone); format: cell-based, human; settings: T cell alone
Description: as §1

1300 mel = experiment: IFN-γ release, co-culture with 1300 mel; format: cell-based; settings: co-cultured with 1300 mel
Description: as §2

U251 Glioma = experiment: IFN-γ release, co-culture with U251 glioma; format: cell-based; settings: co-cultured with U251 Glioma
Description: as §1

[3] = tested on: SSX2+/HLA-A2+ target cells; experiment: Proliferation ([3H]-thymidine) on co-culture with tumor cells; format: cell-based; settings: 1300 mel, 624 mel, 888 mel, SK mel 37 or COS-A2-SSX-2 cells; FIGS. 9A-9E
Description: In another experiment, PBLs transduced as described in this example were co-cultured with 1300 mel cells, 624 mel cells, 888 mel cells, SK mel 37 cells, or COS-A2-SSX-2 cells.

624 mel = experiment: IFN-γ release, co-culture with 624 melanoma; format: cell-based; settings: co-cultured with 624 mel
Description: as §1

938 mel = experiment: IFN-γ release, co-culture with 938; format: cell-based; settings: co-cultured with 938 mel
Description: as §1

T331A mel = experiment: IFN-γ release, co-culture with T331A; format: cell-based; settings: co-cultured with T331A mel
Description: as §1

SKOV3 Ovarian = experiment: IFN-γ release, co-culture with SKOV3 ovarian; format: cell-based; settings: co-cultured with SKOV3 Ovarian
Description: as §1

COS-A2 SSX2 = experiment: IFN-γ release, co-culture with COS-A2 SSX2; format: cell-based; settings: co-cultured with COS-A2-SSX2
Description: as §1

COS-A2-SSX2 cells = experiment: CD137 (4-1BB) upregulation after co-culture with COS-A2-SSX2 cells; format: cell-based; settings: FACS after co-culture with COS-A2-SSX2 cells
K562-A2-Erythroleukemia = experiment: IFN-γ release, co-culture with K562-A2 erythroleukemia; format: cell-based; settings: co-cultured with K562-A2-Erythroleukemia
Description: as §2

COS-A2-SSX-2 cells = experiment: Proliferation ([3H]-thymidine) on co-culture with COS-A2-SSX-2 cells; format: cell-based; settings: PBL from Donor 1 or Donor 2; FIGS. 6A, 6B
Experimental: PBLs from Donor 1 or Donor 2 that were untransduced (UT) or transduced with a vector comprising SEQ ID NO: 27 (SSX-2 TCR), SEQ ID NO: 29 (codon-optimized SSX-2 TCR), or SEQ ID NO: 30 (codon-optimized SSX-2 TCR including mouse constant region) were co-cultured with COS-A2-SSX-2 cells. Proliferation in terms of [^3H]-thymidine incorporation (CPM) was measured and is shown in FIG. 6A (Donor 1) and 6B (Donor 2).

[4] = Table 5 donor, co-cultured with Skmel 37 mel
[5] = Table 6 donor, co-cultured with Skmel 37

Molecule	interferon-γ levels (COS-A2; Table 5 donor) [pg/mL]	interferon-γ levels (COS-A2; Table 6 donor) [pg/mL]	interferon-γ levels (K562; Table 5 donor) [pg/mL]	interferon-γ levels (K562; Table 6 donor) [pg/mL]	interferon-γ levels (938-A2 mel; Table 5 donor) [pg/mL]	interferon-γ levels (938-A2 mel; Table 6 donor) [pg/mL]	interferon-γ levels (Lau 149 mel; Table 5 donor) [pg/mL]	interferon-γ levels (Lau 149 mel; Table 6 donor) [pg/mL]	interferon-γ levels (293-A2 SSX2; Table 5 donor) [pg/mL]	interferon-γ levels (293-A2 SSX2; Table 6 donor) [pg/mL]	interferon-γ levels (SK MEL37; [4]) [pg/mL]	interferon-γ levels (SK MEL37; [5]) [pg/mL]	lytic activity (percent lysis) [1]	interferon-γ levels (293-A2; Table 5 donor) [pg/mL]	interferon-γ levels (293-A2; Table 6 donor) [pg/mL]	interferon-γ levels ([2]; Table 5 donor) [pg/mL]	interferon-γ levels ([2]; Table 6 donor) [pg/mL]	interferon-γ levels (1300 mel; Table 5 donor) [pg/mL]	interferon-γ levels (1300 mel; Table 6 donor) [pg/mL]	interferon-γ levels (U251 Glioma; Table 5 donor) [pg/mL]	also measured
Nc1ncn([C@H]2C[C@H](O)[C@@H](CO)O2)c(=O)n1 [DAC, 5-aza-2′-deoxycytidine]																					effect on recognition of mel1300 cells (IFN-γ) (mel1300 cells): enhances the recognition of mel1300 cells by SSX2-TCR engineered PBL
B1	2338	601	1714	2784	46304	51173	193	120	37522	49112	8869	11445	specific lytic activity against SSX-2^+/HLA-A2^+ target cells	711	1067	164	290	2596	3052	19223	interferon-γ levels (U251 Glioma; Table 6 donor): 21418 pg/mL; proliferation ([3H]-thymidine incorporation) [3]: proliferate in response to co-culture with SSX2+/HLA-A2+ target cells; interferon-γ levels (624 mel; Table 5 donor): 37547 pg/mL; interferon-γ levels (624 mel; Table 6 donor): 47059 pg/mL; interferon-γ levels (938 mel; Table 5 donor): 890 pg/mL; interferon-γ levels (938 mel; Table 6 donor): 768 pg/mL; interferon-γ levels (T331A mel; Table 5 donor): 30 pg/mL; interferon-γ levels (T331A mel; Table 6 donor): 30 pg/mL; interferon-γ levels (SKOV3 Ovarian; Table 5 donor): 2527 pg/mL; interferon-γ levels (SKOV3 Ovarian; Table 6 donor): 22509 pg/mL; interferon-γ levels (COS-A2 SSX2; Table 5 donor): 64142 pg/mL; interferon-γ levels (COS-A2 SSX2; Table 6 donor): 138324 pg/mL; activation marker CD137 (4-1BB) (COS-A2-SSX2 cells): upregulated; interferon-γ levels (K562-A2-Erythroleukemia; Table 5 donor): 21325 pg/mL; interferon-γ levels (K562-A2-Erythroleukemia; Table 6 donor): 13610 pg/mL; proliferation ([3H]-thymidine incorporation) (COS-A2-SSX-2 cells): proliferate in response to co-culture with COS-A2-SSX-2 cells
B2	2827	553	2752	3328	51092	40047	270	142	37258	47273	10401	10630	specific lytic activity against SSX-2^+/HLA-A2^+ target cells	802	1005	327	554	2715	3460	19027	interferon-γ levels (U251 Glioma; Table 6 donor): 20027 pg/mL; proliferation ([3H]-thymidine incorporation) [3]: proliferate in response to co-culture with SSX2+/HLA-A2+ target cells; interferon-γ levels (624 mel; Table 5 donor): 46999 pg/mL; interferon-γ levels (624 mel; Table 6 donor): 57693 pg/mL; interferon-γ levels (938 mel; Table 5 donor): 1122 pg/mL; interferon-γ levels (938 mel; Table 6 donor): 932 pg/mL; interferon-γ levels (T331A mel; Table 5 donor): 30 pg/mL; interferon-γ levels (T331A mel; Table 6 donor): 38 pg/mL; interferon-γ levels (SKOV3 Ovarian; Table 5 donor): 2221 pg/mL; interferon-γ levels (SKOV3 Ovarian; Table 6 donor): 9857 pg/mL; interferon-γ levels (COS-A2 SSX2; Table 5 donor): 56893 pg/mL; interferon-γ levels (COS-A2 SSX2; Table 6 donor): 164314 pg/mL; activation marker CD137 (4-1BB) (COS-A2-SSX2 cells): upregulated; interferon-γ levels (K562-A2-Erythroleukemia; Table 5 donor): 17437 pg/mL; interferon-γ levels (K562-A2-Erythroleukemia; Table 6 donor): 13555 pg/mL; proliferation ([3H]-thymidine incorporation) (COS-A2-SSX-2 cells): proliferate in response to co-culture with COS-A2-SSX-2 cells
